# Laboratory results as given in patent publication US20220204585A1 (RUSH UNIVERSITY MEDICAL CENTER, published 2022).
# Changes are numbered by the printed parent chain.
# T1: CD11b A-domain CD11bA-D140A/F275S/F302G, construct BZ348010 (human, UniProt P11215 148-337)
# T1 chain: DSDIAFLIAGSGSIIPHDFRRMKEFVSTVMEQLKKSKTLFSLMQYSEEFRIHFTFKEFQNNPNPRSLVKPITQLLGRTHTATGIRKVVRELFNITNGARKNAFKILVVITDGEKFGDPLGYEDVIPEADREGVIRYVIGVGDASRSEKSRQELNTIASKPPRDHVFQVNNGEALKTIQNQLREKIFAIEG
# T2: CD11b A-domain CD11bA-D242A/F275S/F302G, construct BZ348014 (human, UniProt P11215 148-337)
# T2 construct: the antigen on which the libraries were enriched; also called BZ348014 antigen
# T2 chain: T1 chain with A9D, D111A
# T3: CD11b A-domain CD11bA-D140A, construct BZ348008 (human, UniProt P11215 148-337)
# T3 construct: MIDAS residue D140 replaced with alanine (no MIDAS metal)
# T3 chain: T1 chain with S144F, G171F
# T4: CD11b A-domain CD11bA-F275S/F302G, construct BZ348013 (human, UniProt P11215 148-337)
# T4 chain: T1 chain with A9D
# T5: CD11b A-domain CD11bA-D242A, construct BZ348011 (human, UniProt P11215 148-337)
# T5 construct: MIDAS residue D242 replaced with alanine (no MIDAS metal)
# T5 chain: T1 chain with A9D, D111A, S144F, G171F
# B1: Clone 14 149-014-14 (VK-Linker-VH) (scFv)
# scFv: DVVMTQSPLSLPATLGQPASISCRSSQSLVYTDGNTYLNWFQQRPGQSPRRLIYKVSNRDSGVPDRFSGSGSGTHFTLKISRVEAEDVGVYYCMQGTHWPPTFGQGTKVEIKEGKSSGSGSESKASEVQLVQSGAEVKKPGASVKVSCKASGGTFSSYAISWVRQAPGQGLEWMGGIIPIFGTANYAQKFQGRVTITADESTSTAYMELSSLRSEDTAVYYCASSGVDYWGQGTLVTVSS
# notes: From the naive human scFv phage display library
# B2: Clone 13 149-014-13 VH only (other)
# VH: EVQLLESGGGLVQPGGSLRLSCAASGFTFSSDLMSWVRQAPGKGLEWVSAISGSGGSTYYADSVKGRFTISRDNSKNTLYLQMNSLRAEDTAVYYCAKNEVIFDYWGQGTLVTVSSASTKGLSMFDYWGQGTKVEIK
# B3: Clone 6 149-014-6 (VL-linker-VH) (scFv)
# scFv: QSVLTQPPSASGTPGQRVTISCSGSSSNIGSNYVSWYQQLPGTAPKLLIYDNNKRPSGIPDRFSGSKSGTSATLGITGLQTGDEADYYCGTWDSSLSALYVFGAGTKLTVLGEGKSSGSGSESKASQVQLQESGPGLVKPSETLSLTCSVSGGSTSSYYWSWIRQPPGKGLEWIGYISNSGSTNYNPSLKSRVTMSIDTSNNQFSLKLSSVTAADTAVYYCASHLGATWRWGQGTLVTVSS
# notes: as for B1
# B4: Clone 5 149-014-5 (VL-Linker-VH) (scFv)
# scFv: SSELTQDPAVSVALGQTVRITCQGDSLRSYYASWYQQKPGQAPVLVIYGKNNRPSGIPDRFSGSTSGNFASLTITGAQAEDGADYYCHSRDSSGNHLVFGGGTKLTVLGEGKSSGSGSESKASEVQLVQSGAEVKKPGESLKISCKGSGYSFTSYWIGWVRQMPGKGLEWMGIIYPGDSDTRYSPSFQGQVTISADKSISTAYLQWSSLKASDTAMYYCARRARGAFDIWGQGTLVTVSS
# notes: as for B1
# Tests used:
# [1] = target: T6, CD11b A-domain CD11bA WT (WT residues 132-321), construct BZ348007 (human, UniProt P11215 148-337); test: phage ELISA dilution series, phage diluted 1:50
# T6 construct: Residues numbered on mature CD11b (signal peptide of 16 residues removed); also called His-TEV-CD11b
# [2] = target: T1, CD11b A-domain …; test: phage ELISA dilution series, phage diluted 1:50
# [3] = target: T2, CD11b A-domain …; test: phage ELISA dilution series, phage diluted 1:50
# [4] = target: T3, CD11b A-domain CD11bA-D140A, construct …; test: phage ELISA dilution series, phage diluted 1:50
# [5] = target: T4, CD11b A-domain CD11bA-F275S/F302G, …; test: phage ELISA dilution series, phage diluted 1:50
# [6] = target: T5, CD11b A-domain CD11bA-D242A, construct …; test: phage ELISA dilution series, phage diluted 1:50
# [7] = target: T6, CD11b A-domain CD11bA WT (WT residues …); test: phage ELISA dilution series, phage diluted 1:5
# [8] = target: T1, CD11b A-domain …; test: phage ELISA dilution series, phage diluted 1:5
# [9] = target: T2, CD11b A-domain …; test: phage ELISA dilution series, phage diluted 1:5
# [10] = target: T3, CD11b A-domain CD11bA-D140A, construct …; test: phage ELISA dilution series, phage diluted 1:5
# [11] = target: T4, CD11b A-domain CD11bA-F275S/F302G, …; test: phage ELISA dilution series, phage diluted 1:5
# [12] = target: T5, CD11b A-domain CD11bA-D242A, construct …; test: phage ELISA dilution series, phage diluted 1:5
# [13] = target: T6, CD11b A-domain CD11bA WT (WT residues …); test: counterscreen phage ELISA on coated antigen
# Procedure: (§1) After 2 rounds of enrichment against the primary target, positive binders were identified by phage ELISA and analyzed by restriction mapping & sequencing for identification of unique clones. Small scale phage growths were diluted 1:5 in TBS+casein. Nunc Maxi-Sorp strip wells were coated at ˜5 ug/ml of each test protein overnight at 4° C. and blocked with TBS+casein. The diluted phage were applied and allowed to bind for 1 hour with shaking. The wells were washed 4 times with TBS+0.05% Tween20 and twice with TBS. Bound phage were detected by incubation for 1 hour with anti-M13-HRP and after washing as above, developed with TMB. Absorbance at 450 nm was read after acidification of the wells.
# [14] = target: T1, CD11b A-domain …; test: counterscreen phage ELISA on coated antigen
# Procedure: as §1
# [15] = target: T2, CD11b A-domain …; test: counterscreen phage ELISA on coated antigen
# Procedure: as §1
# [16] = target: T3, CD11b A-domain CD11bA-D140A, construct …; test: counterscreen phage ELISA on coated antigen
# Procedure: as §1
# [17] = target: T4, CD11b A-domain CD11bA-F275S/F302G, …; test: counterscreen phage ELISA on coated antigen
# Procedure: as §1
# [18] = target: T5, CD11b A-domain CD11bA-D242A, construct …; test: counterscreen phage ELISA on coated antigen
# Procedure: as §1
# [19] = target: T2, CD11b A-domain …; test: phage ELISA, phage diluted 1:5 on coated antigen (~5 ug/ml), anti-M13-HRP
# Procedure: as §1
# [20] = target: T6, CD11b A-domain CD11bA WT (WT residues …); test: phage ELISA dilution series, phage diluted 1:16
# [21] = target: T1, CD11b A-domain …; test: phage ELISA dilution series, phage diluted 1:16
# [22] = target: T2, CD11b A-domain …; test: phage ELISA dilution series, phage diluted 1:16
# [23] = target: T3, CD11b A-domain CD11bA-D140A, construct …; test: phage ELISA dilution series, phage diluted 1:16
# [24] = target: T4, CD11b A-domain CD11bA-F275S/F302G, …; test: phage ELISA dilution series, phage diluted 1:16
# [25] = target: T5, CD11b A-domain CD11bA-D242A, construct …; test: phage ELISA dilution series, phage diluted 1:16
binder,measurement,setting,value
B1,Absorbance at 450 nM,[1],0.06
same,Absorbance at 450 nM,[2],0.04
same,Absorbance at 450 nM,[3],0.059
same,Absorbance at 450 nM,[4],0.047
same,Absorbance at 450 nM,[5],0.078
same,Absorbance at 450 nM,[6],0.045
same,Absorbance at 450 nM,[7],0.557
same,Absorbance at 450 nM,[8],0.046
same,Absorbance at 450 nM,[9],0.782
same,Absorbance at 450 nM,[10],0.372
same,Absorbance at 450 nM,[11],1.38
same,Absorbance at 450 nM,[12],0.2
same,Absorbance at 450 nM,[13],0.22
same,Absorbance at 450 nM,[14],0.659
same,Absorbance at 450 nM,[15],1.06
same,Absorbance at 450 nM,[16],0.38
same,Absorbance at 450 nM,[17],0.953
same,Absorbance at 450 nM,[18],0.259
same,Absorbance at 450 nM,[19],0.598
same,Absorbance at 450 nM,[20],0.101
same,Absorbance at 450 nM,[21],0.038
same,Absorbance at 450 nM,[22],0.356
same,Absorbance at 450 nM,[23],0.08
same,Absorbance at 450 nM,[24],0.278
same,Absorbance at 450 nM,[25],0.054
B2,Absorbance at 450 nM,[13],0.169
same,Absorbance at 450 nM,[14],0.495
same,Absorbance at 450 nM,[15],0.866
same,Absorbance at 450 nM,[16],0.228
same,Absorbance at 450 nM,[17],0.954
same,Absorbance at 450 nM,[18],0.183
same,Absorbance at 450 nM,[19],0.499
B3,Absorbance at 450 nM,[13],0.567
same,Absorbance at 450 nM,[14],1.51
same,Absorbance at 450 nM,[15],1.25
same,Absorbance at 450 nM,[16],0.058
same,Absorbance at 450 nM,[17],1.3
same,Absorbance at 450 nM,[18],0.169
same,Absorbance at 450 nM,[19],0.641
B4,Absorbance at 450 nM,[13],1.78
same,Absorbance at 450 nM,[14],1.74
same,Absorbance at 450 nM,[15],1.69
same,Absorbance at 450 nM,[16],1.85
same,Absorbance at 450 nM,[17],1.65
same,Absorbance at 450 nM,[18],1.77
same,Absorbance at 450 nM,[19],1.37
